In PMC11820797, “Rapid Detection of Alpha-Fetoprotein (AFP) with Lateral Flow Aptasensor”:

Target: T1, alpha-fetoprotein (AFP) (UniProt P02771 19-609)
T1 sequence: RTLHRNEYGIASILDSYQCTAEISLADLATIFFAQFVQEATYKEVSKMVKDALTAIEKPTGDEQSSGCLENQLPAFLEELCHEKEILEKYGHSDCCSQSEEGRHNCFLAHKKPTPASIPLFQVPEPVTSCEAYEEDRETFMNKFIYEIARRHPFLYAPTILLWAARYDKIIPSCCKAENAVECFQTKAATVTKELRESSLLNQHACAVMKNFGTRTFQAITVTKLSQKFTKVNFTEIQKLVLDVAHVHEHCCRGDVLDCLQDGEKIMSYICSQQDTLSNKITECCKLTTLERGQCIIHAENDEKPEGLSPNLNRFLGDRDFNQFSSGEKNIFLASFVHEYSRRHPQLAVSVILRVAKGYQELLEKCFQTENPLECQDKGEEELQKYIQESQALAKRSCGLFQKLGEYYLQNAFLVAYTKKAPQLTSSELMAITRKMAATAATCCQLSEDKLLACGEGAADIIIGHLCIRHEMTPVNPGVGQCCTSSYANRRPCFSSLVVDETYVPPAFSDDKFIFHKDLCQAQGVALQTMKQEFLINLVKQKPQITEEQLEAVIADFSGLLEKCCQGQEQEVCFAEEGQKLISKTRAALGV
Assay: lateral flow aptamer sandwich; AP-273 as both AuNP probe and capture probe; 100 ng/mL AFP detected; LOD 10 ng/mL; Lateral flow strip, 50 uL running buffer (composition not in the material); pads pretreated with 0.05 M Tris-HCl, 2.5% Tween-20, 0.25% Triton X-100; assay pH and temperature not given
Details: label: AuNP (Det-Apt); biotin-streptavidin (Cap-Apt)

B1: AP-273 (Det-Apt / Cap-Apt) (ssDNA)
DNA: GTGACGCTCCTAACGCTGACTCAGGTGCAGTTCTCGACTCGGTCTTGATGTGGGTCCTGTCCGTCCGAACCAATC
modifications: thiol (Det-Apt) or biotin (Cap-Apt), printed at 5' end
- binding result: binds
